Where “and” joins values, the source holds several entries; their conditions need not be identical. Equal entries are not always repeated. Where two headings read alike, the source gives them in different places.
What was measured:
FCGR2A/CD32A (167H) = assay: AlphaLISA FcγR2a binding assay
FCGR1/CD64 = molecular target: T1, FCGR1/CD64 (UniProt P12314 16-288, biotinylated (sites not given)); assay: AlphaLISA FcγR1 binding assay
T1 chain: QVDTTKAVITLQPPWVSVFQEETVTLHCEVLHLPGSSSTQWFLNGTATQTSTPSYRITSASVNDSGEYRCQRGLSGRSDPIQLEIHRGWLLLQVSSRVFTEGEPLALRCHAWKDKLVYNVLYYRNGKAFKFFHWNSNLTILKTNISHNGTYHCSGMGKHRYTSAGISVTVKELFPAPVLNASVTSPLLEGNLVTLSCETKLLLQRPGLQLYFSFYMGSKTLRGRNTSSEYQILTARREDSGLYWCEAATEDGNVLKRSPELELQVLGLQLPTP

FcRn = FcRn (UniProt P55899 24-297; P61769 21-119, biotinylated (sites not given)); assay: AlphaLISA FcRn binding assay
FCGR2A/CD32A (167R) = assay: AlphaLISA FcγR2a binding assay
[1] = molecular target: T2, immunoglobulin gamma Fc receptor 1 (FcγR1) (biotinylated, AlphaLisa binding kit Perkin Elmer #AL3081C) (UniProt P12314 16-288, biotinylated (sites not given)); assay: AlphaLISA FcγR1 binding assay
T2 chain: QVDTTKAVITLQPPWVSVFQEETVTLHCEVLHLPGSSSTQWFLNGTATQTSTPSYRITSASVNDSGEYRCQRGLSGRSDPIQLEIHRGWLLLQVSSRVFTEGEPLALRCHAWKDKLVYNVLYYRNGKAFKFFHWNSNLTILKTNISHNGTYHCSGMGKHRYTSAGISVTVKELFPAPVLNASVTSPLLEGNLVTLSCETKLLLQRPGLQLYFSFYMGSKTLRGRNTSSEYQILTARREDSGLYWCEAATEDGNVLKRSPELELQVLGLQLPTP

[2] = molecular target: T3, FcRn receptor (biotinylated, AlphaLisa binding kit Perkin Elmer #AL3095C) (UniProt P55899 24-297; P61769 21-119, biotinylated (sites not given)); assay: AlphaLISA FcRn binding assay
[3] = molecular target: T3, FcRn receptor (biotinylated, AlphaLisa …); assay: AlphaLISA FcRn binding assay; remark: listed apart in the source
[4] = molecular target: T2, immunoglobulin gamma Fc receptor 1 …; assay: AlphaLISA FcγR1 binding assay

B1: VSTB174 (WT) (antibody)
chain 1: not shown
chain 2: DIQMTQSPSSLSASVGDRVTITCRASQSIDTRLNWYQQKPGKAPKLLIYSASSLQSGVPSRFSGSGSGTDFTLTISSLQPEDFATYYCQQSAYNPITFGQGTKVEIKRTVAAPSVFIFPPSDEQLKSGTASVVCLLNNFYPREAKVQWKVDNALQSGNSQESVTEQDSKDSTYSLSSTLTLSKADYEKHKVYACEVTHQGLSSPVTKSFNRGEC
For B1, the EC50 (FCGR2A/CD32A (167H)) was 2.1 µg/mL, the EC50 (FCGR1/CD64) was 3.6 nM and 0.534 µg/mL and the EC50 (FcRn) was 1.5 µg/mL. For the same binder, the EC50 (FCGR2A/CD32A (167R)) was 4.6 µg/mL.

B2: Ab No. 150.1 (YTE) (antibody)
light: not shown
heavy: QVQLQESGPGLVKPSETLSLTCTVSGGSISSYYWSWIRQPPGKGLEWIGYIYYSGSTNYNPSLKSRVTISVDTSKSQFSLKLSSVTAADTAVYYCARDIPAFAFDIWGQGTMVIVSSASTKGPSVFPLAPSSKSTSGGTAALGCLVKDYFPEPVTVSWNSGALTSGVHTFPAVLQSSGLYSLSSVVTVPSSSLGTQTYICNVNHKPSNTKVDKKVEPKSCDKTHTCPPCPAPELLGGPSVFLFPPKPKDTLYITREPEVTCVVVDVSHEDPEVKFNWYVDGVEVHNAKTKPREEQYNSTYRVVSVLTVLHQDWLNGKEYKCKVSNKALPAPIEKTISKAKGQPREPQVYTLPPSRDELTKNQVSLTCLVKGFYPSDIAVEWESNGQPENNYKTTPPVLDSDGSFFLYSKLTVDKSRWQQGNVFSCSVMHEALHNHYTQKSLSLSPGK
For B2, the EC50 (FCGR2A/CD32A (167H)) was 18.3 µg/mL and 122 nM and the EC50 (FCGR2A/CD32A (167R)) was 275 nM and 41.3 µg/mL.

B3: Ab No. 420.1 (YTE) (antibody)
chain 1: MGWSCIILFLVATATGVHSQLQLQESGPGLVKPSETLSLTCIVSGGSISSSGYYWGWIRQPPGKGLEWIGSIFYSGNTHYNPSLKSRVTIPVDTSKNQFSLKLSSVTAADSAVYYCARRDILTGPFDYWGQGTLVTVSSAASTKGPSVFPLAPSSKSTSGGTAALGCLVKDYFPEPVTVSWNSGALTSGVHTFPAVLQSSGLYSLSSVVTVPSSSLGTQTYICNVNHKPSNTKVDKKVEPKSCDKTHTCPPCPAPELLGGPSVFLFPPKPKDTLYITREPEVTCVVVDVSHEDPEVKFNWYVDGVEVHNAKTKPREEQYNSTYRVVSVLTVLHQDWLNGKEYKCKVSNKALPAPIEKTISKAKGQPREPQVYTLPPSRDELTKNQVSLTCLVKGFYPSDIAVEWESNGQPENNYKTTPPVLDSDGSFFLYSKLTVDKSRWQQGNVFSCSVMHEALHNHYTQKSLSLSPGK
chain 2: not shown
With B3 the EC50 [1] was 14.7 nM and 2.2 µg/mL.

B4: Ab No. 420.4(YTE) (antibody)
chain 1: MGWSCIILFLVATATGVHSQLQLQESGPGLVKPSETLSLTCIVSGGSISSSGYYWGWIRQPPGKGLEWIGSIFYSGNTHYNPSLKSRVTIPVDTSKNQFSLKLSSVTAADSAVYYCARRDILTGPFDYWGQGTLVTVSSAASTKGPSVFPLAPCSRSTSESTAALGCLVKDYFPEPVTVSWNSGALTSGVHTFPAVLQSSGLYSLSSVVTVPSSSLGTKTYTCNVDHKPSNTKVDKRVESKYGPPCPSCPAPEFLGGPSVFLFPPKPKDTLYITREPEVTCVVVDVSQEDPEVQFNWYVDGVEVHNAKTKPREEQFNSTYRVVSVLTVLHQDWLNGKEYKCKVSNKGLPSSIEKTISKAKGQPREPQVYTLPPSQEEMTKNQVSLTCLVKGFYPSDIAVEWESNGQPENNYKTTPPVLDSDGSFFLYSRLTVDKSRWQEGNVFSCSVMHEALHNHYTQKSLSLSLGK
chain 2: not shown
In the case of B4, the EC50 [2] is reported as 0.486 nM and 0.0729 µg/mL.

B5: Antibody No. 150.1 (antibody)
light: not shown
heavy: QVQLQESGPGLVKPSETLSLTCTVSGGSISSYYWSWIRQPPGKGLEWIGYIYYSGSTNYNPSLKSRVTISVDTSKSQFSLKLSSVTAADTAVYYCARDIPAFAFDIWGQGTMVIVSSASTKGPSVFPLAPSSKSTSGGTAALGCLVKDYFPEPVTVSWNSGALTSGVHTFPAVLQSSGLYSLSSVVTVPSSSLGTQTYICNVNHKPSNTKVDKKVEPKSCDKTHTCPPCPAPELLGGPSVFLFPPKPKDTLYITREPEVTCVVVDVSHEDPEVKFNWYVDGVEVHNAKTKPREEQYNSTYRVVSVLTVLHQDWLNGKEYKCKVSNKALPAPIEKTISKAKGQPREPQVYTLPPSRDELTKNQVSLTCLVKGFYPSDIAVEWESNGQPENNYKTTPPVLDSDGSFFLYSKLTVDKSRWQQGNVFSCSVMHEALHNHYTQKSLSLSPGK
B5 was tested, and the EC50 [3] was 0.142 µg/mL and the EC50 [4] was 5.8 nM and 0.868 µg/mL.

B6: Ab No. 420.4 (YTE) (antibody)
chain 1: MGWSCIILFLVATATGVHSQLQLQESGPGLVKPSETLSLTCIVSGGSISSSGYYWGWIRQPPGKGLEWIGSIFYSGNTHYNPSLKSRVTIPVDTSKNQFSLKLSSVTAADSAVYYCARRDILTGPFDYWGQGTLVTVSSAASTKGPSVFPLAPCSRSTSESTAALGCLVKDYFPEPVTVSWNSGALTSGVHTFPAVLQSSGLYSLSSVVTVPSSSLGTKTYTCNVDHKPSNTKVDKRVESKYGPPCPSCPAPEFLGGPSVFLFPPKPKDTLYITREPEVTCVVVDVSQEDPEVQFNWYVDGVEVHNAKTKPREEQFNSTYRVVSVLTVLHQDWLNGKEYKCKVSNKGLPSSIEKTISKAKGQPREPQVYTLPPSQEEMTKNQVSLTCLVKGFYPSDIAVEWESNGQPENNYKTTPPVLDSDGSFFLYSRLTVDKSRWQEGNVFSCSVMHEALHNHYTQKSLSLSLGK
chain 2: not shown
In the case of B6, the EC50 [1] is reported as 139 nM and 20.8 µg/mL.

B7: Ab No. 420.1(YTE) (antibody)
chain 1: MGWSCIILFLVATATGVHSQLQLQESGPGLVKPSETLSLTCIVSGGSISSSGYYWGWIRQPPGKGLEWIGSIFYSGNTHYNPSLKSRVTIPVDTSKNQFSLKLSSVTAADSAVYYCARRDILTGPFDYWGQGTLVTVSSAASTKGPSVFPLAPSSKSTSGGTAALGCLVKDYFPEPVTVSWNSGALTSGVHTFPAVLQSSGLYSLSSVVTVPSSSLGTQTYICNVNHKPSNTKVDKKVEPKSCDKTHTCPPCPAPELLGGPSVFLFPPKPKDTLYITREPEVTCVVVDVSHEDPEVKFNWYVDGVEVHNAKTKPREEQYNSTYRVVSVLTVLHQDWLNGKEYKCKVSNKALPAPIEKTISKAKGQPREPQVYTLPPSRDELTKNQVSLTCLVKGFYPSDIAVEWESNGQPENNYKTTPPVLDSDGSFFLYSKLTVDKSRWQQGNVFSCSVMHEALHNHYTQKSLSLSPGK
chain 2: not shown
B7 was tested, and the EC50 [2] was 0.376 nM and 0.0565 µg/mL.

— patent publication US20240132593A1 (published 2024)
